# Laboratory results taken from patent publication US20200102400A1.
# Where two headings read alike, the source gives them in different places.
# Tests used:
# FcγRs = assay: cell-based or functional assay
# [1] = biological target: C1q protein from human serum (human) (UniProt P02745); assay: FACS, spheroplasts, 10 nM C1q-PE, high-salt buffer (FIG. 3C)
# [2] = biological target: C1q protein from human serum (human) (UniProt P02745); assay: FACS, 10 nM C1q-PE; reference itself
# [3] = biological target: FcγRIIIa-V158-Streptavidin (tetrameric) (human) (UniProt P08637)
# Chain of FcγRIIIa-V158-Streptavidin (tetrameric) (human) (P08637 17-208 F176V): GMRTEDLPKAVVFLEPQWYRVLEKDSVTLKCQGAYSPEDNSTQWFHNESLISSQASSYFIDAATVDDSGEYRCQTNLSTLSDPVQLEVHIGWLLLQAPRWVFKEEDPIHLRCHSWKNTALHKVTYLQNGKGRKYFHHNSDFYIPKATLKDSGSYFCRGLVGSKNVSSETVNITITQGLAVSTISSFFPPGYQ
# [4] = biological target: FcγRIIIa-V158-Streptavidin (tetrameric) (human) (UniProt P08637); remark: listed apart in the source
# [5] = biological target: FcγRIIb-GST (dimeric FcγRIIb) (human) (UniProt P31994)
# Chain of FcγRIIb-GST (dimeric FcγRIIb) (human) (P31994 43-217): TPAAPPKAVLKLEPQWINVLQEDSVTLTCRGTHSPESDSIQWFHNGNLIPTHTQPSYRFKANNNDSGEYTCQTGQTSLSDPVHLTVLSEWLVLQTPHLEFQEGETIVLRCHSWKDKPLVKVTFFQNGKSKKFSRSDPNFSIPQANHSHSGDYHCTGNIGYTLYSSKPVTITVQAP
# [6] = biological target: FcγRIIIa-V158-GST (dimeric FcγRIIIaV158) (human) (UniProt P08637)
# Chain of FcγRIIIa-V158-GST (dimeric FcγRIIIaV158) (human) (P08637 17-208 F176V): as the sequence (P08637 17-208 F176V) above
# [7] = biological target: C1q protein from human serum (human) (UniProt P02745); assay: FACS, spheroplasts, 10 nM C1q-PE
# [8] = biological target: C1q protein from human serum (human) (UniProt P02745); assay: FACS, cell display, 10 nM C1q-PE
# Chain of C1q protein from human serum (human) (P02745 23-245, chain 1 of 3): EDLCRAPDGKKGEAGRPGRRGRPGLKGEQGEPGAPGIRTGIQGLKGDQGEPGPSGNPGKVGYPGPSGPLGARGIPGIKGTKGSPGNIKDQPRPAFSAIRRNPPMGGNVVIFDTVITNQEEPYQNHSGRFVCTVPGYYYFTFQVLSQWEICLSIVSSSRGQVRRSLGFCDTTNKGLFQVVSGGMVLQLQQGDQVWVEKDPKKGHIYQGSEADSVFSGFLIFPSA
# Chain of C1q protein from human serum (human) (P02746 28-253, chain 2 of 3, further chain): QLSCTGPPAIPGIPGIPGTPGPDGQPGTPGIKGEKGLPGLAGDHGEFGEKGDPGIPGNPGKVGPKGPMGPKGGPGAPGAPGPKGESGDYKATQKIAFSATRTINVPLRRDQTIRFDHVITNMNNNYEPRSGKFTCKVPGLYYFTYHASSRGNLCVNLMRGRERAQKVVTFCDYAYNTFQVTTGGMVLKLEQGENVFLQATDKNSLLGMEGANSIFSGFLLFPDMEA
# Chain of C1q protein from human serum (human) (P02747 29-245, chain 3 of 3, further chain): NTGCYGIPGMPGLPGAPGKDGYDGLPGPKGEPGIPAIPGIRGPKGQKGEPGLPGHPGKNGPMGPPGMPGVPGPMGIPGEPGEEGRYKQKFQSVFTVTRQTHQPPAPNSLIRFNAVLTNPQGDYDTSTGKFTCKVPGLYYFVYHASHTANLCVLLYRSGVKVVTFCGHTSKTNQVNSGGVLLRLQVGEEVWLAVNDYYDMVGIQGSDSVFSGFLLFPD
"ADCC EC50, Raji targets, PBMC (FcγRs)",Substance,MFI [1],Increasing Fold [2],MFI [3],MFI [4],MFI [5],MFI [6],MFI [7],MFI [8]
2.11 nM,Rituximab (glycosylated wild-type IgG1) (antibody),–,–,–,–,–,–,–,–
–,wild-type aglycosylated IgG displayed on E. coli spheroplasts (antibody),14.9,1 fold,36.6,6.44,4.5,3.8,54.7,23.5
